Assay results from paper PMC12120064.

What was measured:
Test in all cases: CEACAM1 co-IP (PLA also mentioned)
Conditions in all cases: reference: full-length 4L CEACAM1; sites Y493,Y520
SHP-1 = SHP-1 (UniProt P29350)
SYK = SYK (UniProt P43405)
filamin A (FLNA) = filamin A (FLNA) (UniProt P21333)

Measured: binding against the reference

CEACAM1 (CEACAM1-4L) (from UniProt P13688) Y493F/Y520F
weaker: all assays above
